According to US8491891B2, “Human beta-glucuronidase mutants with elevated enzymatic activity under physiological conditions and method for identifying such” (Academia Sinica, priority 2008, dated 2013):

B1: Wild type: Human beta-glucuronidase (wild-type, SEQ ID NO: 11) (protein, listed as Homo sapiens)
chain: MARGSAVAWAALGPLLWGCALGLQGGMLYPQESPSRECKELDGLWSFRADFSDNRRRGFEEQWYRRPLWESGPTVDMPVPSSFNDISQDWRLRHFVGWVWYEREVILPERWTQDLRTRVVLRIGSAHSYAIVWVNGVDTLEHEGGYLPFEADISNLVQVGPLPSRLRITIAINNTLTPTTLPPGTIQYLTDTSKYPKGYFVQNTYFDFFNYAGLQRSVLLYTTPTTYIDDITVTTSVEQDSGLVNYQISVKGSNLFKLEVRLLDAENKVVANGTGTQGQLKVPGVSLWWPYLMHERPAYLYSLEVQLTAQTSLGPVSDFYTLPVGIRTVAVTKSQFLINGKPFYFHGVNKHEDADIRGKGFDWPLLVKDFNLLRWLGANAFRTSHYPYAEEVMQMCDRYGIVVIDECPGVGLALPQFFNNVSLHHHMQVMEEVVRRDKNHPAVVMWSVANEPASHLESAGYYLKMVIAHTKSLDPSRPVTFVSNSNYAADKGAPYVDVICLNSYYSWYHDYGHLELIQLQLATQFENWYKKYQKPIIQSEYGAETIAGFHQDPPLMFTEEYQKSLLEQYHLGLDQKRRKYVVGELIWNFADFMTEQSPTRVLGNKKGIFTRQRQPKSAAFLLRERYWKIANETRYPHSVAKSQCLENSPFT
B2: E1-S: human beta-glucuronidase variant T545S, SEQ ID NO: 6 (protein)
chain: GAQPALQGGMLYPQESPSRECKELDGLWSFRADFSDNRRRGFEEQWYRRPLWESGPTVDMPVPSSFNDISQDWRLRHFVGWVWYEREVILPERWTQDLRTRVVLRIGSAHSYAIVWVNGVDTLEHEGGYLPFEADISNLVQVGPLPSRLRITIAINNTLTPTTLPPGTIQYLTDTSKYPKGYFVQNTYFDFFNYAGLQRSVLLYTTPTTYIDDITVTTSVEQDSGLVNYQISVKGSNLFKLEVRLLDAENKVVANGTGTQGQLKVPGVSLWWPYLMHERPAYLYSLEVQLTAQTSLGPVSDFYTLPVGIRTVAVTKSQFLINGKPFYFHGVNKHEDADIRGKGFDWPLLVKDFNLLRWLGANAFRTSHYPYAEEVMQMCDRYGIVVIDECPGVGLALPQFFNNVSLHHHMQVMEEVVRRDKNHPAVVMWSVANEPASHLESAGYYLKMVIAHTKSLDPSRPVTFVSNSNYAADKGAPYVDVICLNSYYSWYHDYGHLELIQLQLATQFENWYKKYQKPIIQSEYGAESIAGFHQDPPLMFTEEYQKSLLEQYHLGLDQKRRKYVVGELIWNFADFMTEQSPTRVLGNKKGIFTRQRQPKSAAFLLRERYWKIANETRYPHSVAKSQCLENSPFTSVD
modifications: Laboratory generated variant, E1-S, based upon the human beta-glucuronidase
B3: E1-G: human beta-glucuronidase variant T545G, SEQ ID NO: 7 (protein)
chain: GAQPALQGGMLYPQESPSRECKELDGLWSFRADFSDNRRRGFEEQWYRRPLWESGPTVDMPVPSSFNDISQDWRLRHFVGWVWYEREVILPERWTQDLRTRVVLRIGSAHSYAIVWVNGVDTLEHEGGYLPFEADISNLVQVGPLPSRLRITIAINNTLTPTTLPPGTIQYLTDTSKYPKGYFVQNTYFDFFNYAGLQRSVLLYTTPTTYIDDITVTTSVEQDSGLVNYQISVKGSNLFKLEVRLLDAENKVVANGTGTQGQLKVPGVSLWWPYLMHERPAYLYSLEVQLTAQTSLGPVSDFYTLPVGIRTVAVTKSQFLINGKPFYFHGVNKHEDADIRGKGFDWPLLVKDFNLLRWLGANAFRTSHYPYAEEVMQMCDRYGIVVIDECPGVGLALPQFFNNVSLHHHMQVMEEVVRRDKNHPAVVMWSVANEPASHLESAGYYLKMVIAHTKSLDPSRPVTFVSNSNYAADKGAPYVDVICLNSYYSWYHDYGHLELIQLQLATQFENWYKKYQKPIIQSEYGAEGIAGFHQDPPLMFTEEYQKSLLEQYHLGLDQKRRKYVVGELIWNFADFMTEQSPTRVLGNKKGIFTRQRQPKSAAFLLRERYWKIANETRYPHSVAKSQCLENSPFTSVD
modifications: Laboratory generated variant, E1-G, based upon the human beta-glucuronidase
B4: E1-Y: human β-glucuronidase single amino acid mutant T545Y (protein, UniProt P08236 23-651, looked up, variant T545Y)
Beta-glucuronidase: LQGGMLYPQESPSRECKELDGLWSFRADFSDNRRRGFEEQWYRRPLWESGPTVDMPVPSSFNDISQDWRLRHFVGWVWYEREVILPERWTQDLRTRVVLRIGSAHSYAIVWVNGVDTLEHEGGYLPFEADISNLVQVGPLPSRLRITIAINNTLTPTTLPPGTIQYLTDTSKYPKGYFVQNTYFDFFNYAGLQRSVLLYTTPTTYIDDITVTTSVEQDSGLVNYQISVKGSNLFKLEVRLLDAENKVVANGTGTQGQLKVPGVSLWWPYLMHERPAYLYSLEVQLTAQTSLGPVSDFYTLPVGIRTVAVTKSQFLINGKPFYFHGVNKHEDADIRGKGFDWPLLVKDFNLLRWLGANAFRTSHYPYAEEVMQMCDRYGIVVIDECPGVGLALPQFFNNVSLHHHMQVMEEVVRRDKNHPAVVMWSVANEPASHLESAGYYLKMVIAHTKSLDPSRPVTFVSNSNYAADKGAPYVDVICLNSYYSWYHDYGHLELIQLQLATQFENWYKKYQKPIIQSEYGAEYIAGFHQDPPLMFTEEYQKSLLEQYHLGLDQKRRKYVVGELIWNFADFMTEQSPTRVLGNKKGIFTRQRQPKSAAFLLRERYWKIANETRYPHSVAKSQCLENSLFT

Columns and labels:
[1] = Kinetic values (Km, kcat) of soluble recombinant human β-glucuronidase and variants; format: biochemical; settings: for kcat/Km, fold higher than wild-type human β-glucuronidase: pH 7.0
Protocol: Recombinant His-tagged wild-type human β-glucuronidase and its variants (soluble) were produced in and purified from stable 3T3 fibroblast lines, following the method described above also the method described in Wu et al., Biotechnol Appl Biochem 40:167-172 (2004).
(§1) The pH-dependent enzyme activities of the above-mentioned recombinant human beta-glucuronidase and variants were measured in triplicate with 0.1 mM ELF97 β-D-glucuronide at 37° C. for 30 minutes at a defined pH ranging from 3-10 in a beta-glucuronidase reaction buffer (50 mM Bis-Tris, 50 mM triethanol amine, 100 mM acetic acid, 0.1% BSA). The reaction was quenched by adding an equal volume of a stop buffer (2 M Tris-HCl, 0.8 M sodium bicarbonate, pH 8). The fluorescence of ELF97 was measured in a Gemini EM microplate spectrofluorometer (Molecular Device, Sunnyvale, Calif.) at excitation/emission wavelengths of 355/555 nm. Kinetic values for human beta-glucuronidase substrate hydrolysis were determined by diluting ELF97 β-D-glucuronide (2 mM) in a pH 4.5 or pH 7.0 beta-glucuronidase reaction buffer 1:1 with defined concentrations of human beta-glucuronidase in 200 μl. Fluorescence was immediately measured under thermal control at 37° C. for 8-10 min. The measurement was repeated using the same amount of enzyme at different substrate concentrations in an optimal range. The acquired readings were converted to product concentration based on preestablished standard curves. Double reciprocal plots were used to determine Km and kcat. Kinetic assays were performed at least 3 times and mean values were calculated. The stability of recombinant human beta-glucuronidase variants was carried out by measuring their enzymatic activity at time 0 and again after incubating 5 μg purified enzymes in PBS (containing 0.5 mg/ml BSA) at 37° C. for 14 days. The enzymatic activities of the human beta-glucuronidase variants were measured in triplicate with 0.5 mM 4-methylumbelliferyl β-D-glucuronide at 37° C. for 15 minutes at pH 7.0 in β-glucuronidase reaction buffer. The reaction was terminated by adding an equal volume of a stop buffer (1 M glycine, 0.5 M sodium bicarbonate, pH 11) and the fluorescence was measured at excitation/emission wavelengths of 355/460 nm in a microplate spectrofluorometer.

[2] = Relative activity of membrane-tethered human β-glucuronidase variants on 3T3 cells by flow cytometry (FL4/FL1); format: cell-based; settings: membrane-tethered enzyme, pH 7.0, substrate ELF97 β-D-glucuronide
Protocol: The 3T3 cell libraries mentioned above were screened by FACS analysis for cells that express human β-glucuronidase variants with elevated enzymatic activity. 10^7 3T3 cells expressing membrane-bound human β-glucuronidase variants were washed and suspended in 0.4 ml BSA/HBSS (5.4 mM KCl, 0.3 mM Na2HPO4, 0.4 mM KH2PO4, 4.2 mM NaHCO3, 1.3 mM CaCl2, 0.5 mM MgCl2, 0.6 mM MgSO4, 137 mM NaCl, 5.6 mM D-glucose, pH 7.4) containing 0.5% bovine serum albumin (BSA) and 20 μg/ml 7G8-FITC for 30 min at 4° C. Cells were then washed and incubated with 25, 50 or 100 μM ELF97 β-D-glucuronide at defined pH values in 50 mM Bis-Tris, 25 mM glucose, 85.6 mM NaCl, 5.4 mM KCl, 0.6 mM MgSO4, 1.3 mM CaCl2) at 37° C. for 10 min. The cells were washed with ice-cold 0.5% BSA/HBSS and suspended in 0.5% BSA/HBSS containing 5 μg/ml propidium iodide (Sigma). Cells were then sorted on a FACSVantage DiVa (Becton, Dickinson and Company, Franklin Lakes, N.J.) equipped with an Enterprise IIC argon laser for dual excitation at 488 and 351-364 nm. Dead cells (propidium iodide positive, high FL3 fluorescence) were gated out before 7G8-FITC immunofluorescence was detected at excitation/emission wavelengths of 488/515 nm (FL1) and ELF97 was detected at excitation/emission wavelengths of 351/530 nm (FL4). […] The sorted cells were cultured for 4-10 days for sequential rounds of cell sorting or RNA extraction. Flow cytometer data was analyzed using Flowjo (Tree star, Ashland, Oreg.).
Independent 3T3 clones (5×10^7) in library EP2 mentioned above were immunofluorescence stained with 7G8-FITC and reacted with ELF97 β-D-glucuronide at pH 7.0. Sixteen individual cell clones were isolated after three rounds of sorting and the human β-glucuronidase genes were sequenced. […] Table 1 below lists amino acid substitutions in five exemplary variants and their relative enzymatic activities.

[3] = pH-dependent enzyme activity of recombinant human β-glucuronidase and variants (pH 3-10); format: biochemical
Protocol: as §1, with “The measurement was repeated using the same amount of enzyme at different substrate concentrations in an optimal range.” left out, “Double reciprocal plots were used to determine Km and kcat.” left out, “The stability of recombinant human beta-glucuronidase variants was carried out by measuring their enzymatic activity at time 0 and again after incubating 5 μg purified enzymes in PBS (containing 0.5 mg/ml BSA) at 37° C. for 14 days.” left out, “The reaction was terminated by adding an equal volume of a stop buffer (1 M glycine, 0.5 M sodium bicarbonate, pH 11) and the fluorescence was measured at excitation/emission wavelengths of 355/460 nm in a microplate spectrofluorometer.” left out

[4] = test system: EJ human bladder cancer cells; experiment: Prodrug activation of HAMG by enzyme, 3H-thymidine incorporation; format: cell-based; settings: 10 μM HAMG, pH 6.8, 24 h
Protocol: (§2) The prodrug activation activity of the human beta-glucuronidase variants was determined as follows. EJ human bladder cancer cells were incubated with graded concentrations (see FIGS. 3B and 3C) of human β-glucuronidase variants in RPMI (pH 6.8) containing either 10 μM HAMG or 100 nM SN-38G for 24 hours. The cells were further incubated for 24 hours in fresh medium before incorporation of ^3H-thymidine into cellular DNA was measured following the procedure described below.
(§3) Purified recombinant human beta-glucuronidase and its variants with defined concentrations were mixed with 10 μM HAMG or 100 nM SN-38G and the mixture was added to 5000 EJ human bladder cancer cells in 200 μl complete medium at pH 6.8 for 24 h. The cells were washed and incubated in fresh medium for 24 h and then pulsed for 16 h with ^3H-thymidine (1 μCi/well). The cells were harvested and the radioactivity was measured in a TopCount Microplate Scintillation Counter (Packard, Meriden, Conn.). Results are expressed as percent inhibition of ^3H-thymidine incorporation into cellular DNA in comparison to untreated cells.

[5] = test system: EJ human bladder cancer cells; experiment: Prodrug activation of SN-38G by enzyme, 3H-thymidine incorporation; format: cell-based; settings: 100 nM SN-38G, pH 6.8, 24 h
Protocol: as §2, §3

[6] = Enzymatic activity of purified position-545 single mutants at pH 7.0; format: biochemical; settings: purified enzyme
Excerpt: DNA plasmids were extracted from 12 individual cell clones and subjected to DNA sequencing to examine mutations in the genes encoding human β-glucuronidase variants. All human β-glucuronidase variants being examined had mutations at position 545 (50% T→A and 50% T→S). To determine the effect of amino acid substitutions at position 545 on enzyme activity, the single amino acid mutants T545A (E1-A), T545G (E1-G), T545S (E1-S) and T545Y (E1-Y) were generated and purified from the culture medium of stably transfected fibroblasts. […] Thus, the single amino acid substitution at position 545 affected human β-glucuronidase activity at neutral pH.

Row | Molecule | Km ([1]; pH 4.5, 37° C.) [µM] | kcat ([1]; pH 4.5, 37° C.) [s⁻¹] | Km ([1]; pH 7.0, 37° C.) [µM] | kcat ([1]; pH 7.0, 37° C.) [s⁻¹] | Relative activity (FL4/FL1 normalized to wild-type human β-glucuronidase) [2] | pH of maximal activity ([3]; 0.1 mM ELF97 β-D-glucuronide, 37° C., 30 minutes) | Activity at pH 7.0 as percent of maximal activity ([3]; pH 7.0) [%] | EC50 of enzyme for killing of EJ cells with HAMG [4] [mg/L] | EC50 of enzyme for killing of EJ cells with SN-38G [5] [mg/L] | kcat/Km, fold higher than wild-type human β-glucuronidase [1] [fold] | Enzymatic activity relative to wild-type human β-glucuronidase [6]
1 | B1 | 480 ± 60 | 175 ± 17 | 2250 ± 670 | 41 ± 6 | 1 | 4.0 | 2 | 24 | 0.096 |  | 
2 | B2 | 52 ± 4 | 117 ± 14 | 390 ± 40 | 31 ± 6 | 21 |  |  |  |  | 4 | about 1.5 fold
3 | B3 | 22 ± 2 | 106 ± 4 | 110 ± 10 | 32 ± 4 |  |  |  |  |  | 10 | about 2.5 fold
4 | B4 |  |  |  |  |  |  |  |  |  |  | almost inactive
